Consider two substances from patent publication US20120064106A1.

The target in the experiment is TLR5 on RAW 424 (TLR5+) cells. The experiment in a line: cell-based or functional assay.

“P. aeruginosa type A flagellin (strain PAK), recombinant full-length (from UniProt P21184 2-394) (ligand)” came in with a TNF-α production by RAW 424 (TLR5+) cells, half-maximal stimulation of 16 pM. To “P. aeruginosa type B flagellin (strain PAO1), recombinant full-length (from UniProt P72151 1-488) (ligand)” belongs 4e+07 pM.
